What was measured:
[1] = target: RBD(319-541)-HEK_A3 (SARS-CoV-2) (UniProt P0DTC2); test: SDS-PAGE
[2] = target: (RBD(319-541)-CHO)2 (SARS-CoV-2) (UniProt P0DTC2); test: SDS-PAGE

Row | Substance | percent of the preparation as dimer [1] | stoichiometry N [1] | stoichiometry N [2]
1 | RBD(319-541)-HEK_A3 (from UniProt P0DTC2 319-541) (domain or fragment) | 13% | 2 | –
2 | (RBD(319-541)-CHO)2 (from UniProt P0DTC2 319-541) (domain or fragment) | – | – | 2
